Paper PMC12483538

Molecular target: SenDRT9 reverse transcriptase (SenRT), affinity tag cleaved, in complex with its ncRNA (Salmonella enterica)
Assay: cryo-EM structure; 2.5 uM tag-cleaved DRT9 RT-ncRNA complex (hexamer) on Quantifoil grids; D3 symmetry imposed, 2.59 A

- stoichiometry N: 6
Substance: SenDRT9 reverse transcriptase (SenRT), affinity tag cleaved, in complex with its ncRNA (enzyme)
